Measurements taken from the supplement of paper PMC12042874.
± gives the uncertainty stated by the source.

Test: amyloid nucleation score (Sup35N fusion, yeast selection) (log enrichment); library NNK2; higher = more nucleation; inactive = no reads after selection
Method in brief: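 On medium lacking adenine and uracil, psi-negative yeast expressing peptides of 20 random codons fused to Sup35N were grown 7 days at 30°C after a 24-hour induction with 100 μM copper sulfate. Illumina sequencing of input and output plasmid inserts gave the reads, and sequences under 100 input reads were excluded. The nucleation score is the DiMSum log enrichment of output over input reads, centred on the mode score of non-aggregating sequences.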

| Substance | amyloid nucleation score |
| --- | --- |
| DCFPLLLNRFRPEHYVRWHR | 0.887 ± 0.57 |
| SSVVISRVPTARICSEEKGP | inactive |
| CGQLSVWYEGMINVSCFLEI | -1.4 ± 0.75 |
| YGFLCRL | inactive |
| LFLSGKEIPMNVFTIVCTDP | inactive |
| WLPNRRNVPYAVESVCS | 0.971 ± 0.33 |
| RQMPVGGCVFMTKVCKT | 0.232 ± 0.64 |
| HMYLDMPAQLTS | 2.69 ± 0.062 |
| RAATYYQFVVLVCKQSDFKR | 5.77 ± 0.095 |
| QLPNPKNMISIGNYWKQRSF | -1.47 ± 1.1 |
| TVYYNQLSD | -0.982 ± 0.76 |
| GDHRFMSVVYVFYQSLNGVV | 3.41 ± 0.049 |
| CYAGFCN | inactive |
| DSWLGRMTRDKGNASFRSAS | 1.16 ± 0.46 |
| STGSWTTVKLGREGAILHAL | -0.407 ± 0.45 |
| CSTLVRIR | 0.723 ± 0.46 |
| QFLEFHIP | -0.223 ± 0.49 |
| RPNNLDMVH | 0.619 ± 0.57 |
| LKVISTCLRWQHASLPCQ | 0.822 ± 0.43 |
| EALYALLSGGASNLKSHRLL | 0.26 ± 0.65 |
| WSYGSNLPWLDKPNWHHETW | 1.2 ± 0.47 |
| VDRFPVLVPKGWHMRRWCIR | 0.669 ± 0.39 |
| ALYRL | 0.233 ± 0.62 |
| WNKWSGLVLYTLGKLSY | -0.648 ± 0.39 |
| AIDAFFLSV | -0.191 ± 0.26 |
| CLNQSLRNTSWKHMAEPKKR | 3.82 ± 0.12 |

| Substance | amyloid nucleation score |
| --- | --- |
| WWVPCSLYWYSAEGPGLARA | 0.007 ± 0.31 |
| HWSFS | 2.85 ± 0.17 |
| VMTIVIFGLYNY | 2.35 ± 0.18 |
| RISKRAHECLIMQG | -0.108 ± 1.1 |
| LSWITPIKIGISFSLALIFT | -0.974 ± 0.49 |
| SVLMGG | -0.223 ± 0.54 |
| YVLELKG | 2.75 ± 0.062 |
| KSFGVDYFFCVKLTSCGIQC | 3.25 ± 0.12 |
| MVLASAAKVMEVLNSKQFT | 1.42 ± 0.13 |
| LIFFYSS | -1.05 ± 1 |
| LNNHTPDLVWRSSVIGRCQK | 0.47 ± 0.48 |
| FYVSAFMHIKVLYPVNNRLG | 3.62 ± 0.11 |
| KPNPFLVLLLRT | -0.123 ± 0.46 |
| FKAHIR | inactive |
| IDLTHECVRVWVDSKLLSPF | -0.742 ± 1.1 |
| PPHRAYGILMMNTRRTSSIT | 0.604 ± 0.37 |
| YYDSYPVT | 0.013 ± 0.28 |
| EKVDCSVLAGNNWTWVNISL | 6.7 ± 0.079 |
| DTVYAF | -0.651 ± 1.1 |
| LINCSSTLITIYSRYNAMYF | 5.415 ± 0.049 |
| AFYKFMSEHSSAVHCDPMHD | -0.025 ± 0.76 |
| GVGYPVFYWKVSMYSRDSDH | 3.38 ± 0.067 |
| LMGIILF | -1.49 ± 0.78 |
| HDMRHYKGSPYYLNYWYGDG | -0.623 ± 0.55 |
| EALMMVYGWEKTD | 0.733 ± 0.24 |
| VPCRSPVSGASKRTYLLINV | 0.045 ± 0.31 |

| Substance | amyloid nucleation score |
| --- | --- |
| LGLAVKSRTPDLTGGPRASE | 1.68 ± 0.18 |
| TLTYYPFMRYAFTVSLWFLF | -1.83 ± 1.1 |
| TCDCIIARFDALTSISRLAL | 1.02 ± 0.41 |
| IVLNVYMRKTKQV | 0.078 ± 0.29 |
| IDILTVICVPEIYNWFLMQY | -0.842 ± 0.35 |
| CPDISGVSRHRAKRQKNWLY | inactive |
| ARECNY | 3.78 ± 0.063 |
| GSESLNV | 0.887 ± 0.57 |
| IMVRLLDAYHTMRAKDSMGN | 0.06 ± 0.62 |
| MVVDFVVYITVCSFRFKQTF | 1.97 ± 0.18 |
| NALHEIQLDICMRSIEARGY | -1.19 ± 0.39 |
| VSKNYDHCELRHMECAYWYT | 0.211 ± 0.19 |
| LIQVGQSST | 0.046 ± 0.49 |
| IDYRPDCQRPVLVYLNKGCM | -0.389 ± 0.24 |
| EADELGLLVSIKCRAARRCW | 5.743 ± 0.052 |
| FDPSMSFNWCICSFELDWAG | 5.321 ± 0.032 |
| NREIGISWEGWMMLKILQYK | inactive |
| MHVDVV | -0.352 ± 1 |
| TYLGNLYIMRFRAVLREPLV | 0.077 ± 0.8 |
| SDPKLFCAIKAGNTQLGVES | 0.634 ± 0.54 |
| YHNCNQHSWYRMRCFG | -0.417 ± 1.1 |
| FSRYGRMRFLHCSTFSLMPI | -0.07 ± 0.76 |
| DIWMAINVGAYGVCEFCVSR | 5.88 ± 0.071 |
| HPLVLWSIELCMMFFNSLTD | -0.565 ± 0.48 |
| LYFRYWVMDSQASNFHRCRG | -0.14 ± 1 |
| ITSVKHCAS | 1.05 ± 0.53 |

| Substance | amyloid nucleation score |
| --- | --- |
| QIYSMDMQRMNKCCCEDGEV | inactive |
| ERDSSALRMAYSICHGNSVV | 0.232 ± 0.56 |
| RTCSRGSFTYMEIGNVGRGC | 0.275 ± 0.5 |
| NSSRL | -0.166 ± 1.1 |
| VNLSTGSRDLRGYWTTPIFQ | -0.815 ± 0.54 |
| GLSDQKGTVALRFFYFDFYS | 2.73 ± 0.074 |
| IRMLLYCMESELKGASVEAG | -0.037 ± 0.5 |
| CLFSILLVMIPASFYTAMWL | -0.588 ± 1.1 |
| GSVGFVQYAVGNSMTSGIMV | -0.307 ± 0.2 |
| KCLSRNPHSIDFMRNARYKD | -0.92 ± 0.33 |
| WRGLGVLYVSCVDSRVSSI | -1.73 ± 0.75 |
| DRTDVCWSSGHDHLDLCWMS | 0.273 ± 0.25 |
| MAYWESTVIYYIDWEWDSLV | -1.16 ± 0.39 |
| LVILAGTVRIVRHGLVALQL | 0.592 ± 0.22 |
| LAFGHVSVS | 0.086 ± 0.55 |
| NLDCLYTLAS | 0.339 ± 0.8 |
| GVDFKVVTKSWIIYNYIIGM | 3.07 ± 0.064 |
| VYEGSLCLAYERLTGMGFIK | -0.382 ± 0.29 |
| QSGLIHY | -0.894 ± 0.78 |
| RTLFV | -0.146 ± 0.63 |
| LFVIGLLSGVSICVYCRSWS | 3.41 ± 0.11 |
| IARVDLKFMESIRSHMV | 1.71 ± 0.56 |
| NSTLRSLYTVFFIRMLQMVG | -0.753 ± 0.36 |
| RYFRATPKVCRLH | 0.175 ± 0.26 |
| VSCCNLVVDLKRTILLFGGR | 7.504 ± 0.052 |
| HYLVS | 0.326 ± 0.49 |

| Substance | amyloid nucleation score |
| --- | --- |
| NRSTRGWGVVSTLCYRLSSF | inactive |
| LLSSWNKSYKIRTIGIIGNV | -0.848 ± 0.25 |
| ICIHYANNLLVNMRTKMCHK | 9.369 ± 0.054 |
| HVADTGLIMQYVVSGLRVAG | 0.602 ± 0.22 |
| SRQRVMLLC | inactive |
| NCPCGHVVRVNNNWRCFSVT | 6.933 ± 0.052 |
| YYIMCFSSGCDPLPQHCGWE | -0.821 ± 1.1 |
| HCSDFDLVSAKWSSQWARNG | 1.13 ± 0.4 |
| MLVMTMLWKMFSVAG | 0.432 ± 0.26 |
| YNFGEFACYHH | 3.81 ± 0.099 |
| WPGRRRYAMCVMTKRRGGLE | 0.422 ± 0.29 |
| LVFRMQHSLTHGLLSEPGNR | 2.28 ± 0.17 |
| IPYNLIASVMLFKDLNWFAK | 6.491 ± 0.05 |
| CPSWFLSGDKCFYRGESSEN | -0.184 ± 0.63 |
| LSCSILRPVWLYISLIVIID | -1.28 ± 0.48 |
| LVREWHRKNSSGPRIVVRRQ | 4.18 ± 0.079 |
| LISSSFRSVLRPNWTPLKVC | inactive |
| STARRRCYFGFGLGQSSAAI | -0.891 ± 1.1 |
| FFQQRCYVVFAIMTSSGADD | 0.864 ± 0.12 |
| LKGSRNRATSDKGWKEG | 0.306 ± 0.8 |
| LKYIPRWVGTSLLQRKLCDF | -0.711 ± 1.1 |
| RNAQPLNGPRSPVSGTDWYS | 0.092 ± 1.1 |
| SRKTIVGFYGVPGVRYACIW | inactive |
